Measured values as given in patent US20120231006A1 (Amgen, published 2012).

Key:
human Orai1 = molecular target: T1, human Orai1 (human, UniProt Q96D31 1-301); experiment: FACS Kd, AM1-CHO/hOrai1/hSTIM1-YFP cells
T1 construct: on AM1-CHO/hOrai1/hSTIM1-YFP, AM1/hOrai1, HEK-293 transfectants, endogenous on Jurkat and blood cells; in Westerns from cell lysates; also called hOrai1; CRACM1
Description: The equilibrium plates were centrifuged at 500 g for 3 minutes and cell pellets were washed twice with 200 μL of ice cold FACS buffer (1×D-PBS+2% FBS). The cells were then incubated with a secondary antibody, goat anti-human Fc Cy5 at 5 μg/mL and 100 μL per well for 1 h on ice in the dark. Following the incubation, the cells were washed twice with 200 μL of ice-cold FACS buffer before flow cytometry analysis. The GeoMean values gated on live cell population measure the bound [Ab]. The inverse of the GeoMean values that reflects theoretical free [Ag] in the equilibrium solution was then calculated. The inverse values of the GeoMean read were used in KinExA® Pro software for analysis and Kd calculation for each antibody. The free [Ag] measure was plotted against the starting concentration of titrating component and from these plots at two different cell concentrations the Kd was obtained from curve fitting using n-curve analysis in KinExA Pro software. […] Shown in Table 14 (below) are the equilibrium dissociation constant (Kd) values of invented mAbs determined by FACS Kd measurement.

[1] = molecular target: T2, mOrai1-hOrai1 ECL2 (…) protein (human/mouse chimera, UniProt Q8BWG9 1-304 (mouse entry)); experiment: FACS, 293EBNA; set-up: concentration or dose not given beside the values
T2 construct: also called Ch
Source text: (§1) FIG. 16A-D illustrates the results of FACS analysis showing binding to the indicated mOrai1-hOrai1 ECL2 chimeric mutants expressed on the surface of HEK-293-EBNA cells. Transfected cells were stained first with recombinant monoclonal antibodies then counter-stained with a secondary phycoerythrin-labeled goat (“Gt”) anti-human (“Hu”) IgG F(ab′)₂ antibody fragment and visualized using FACS. In FIG. 16B and FIG. 16D, The values of Relative Fluorescence Intensity as Percent of Control (RFI-POC) are calculated from the relative fluorescence intensity geometric mean (Geo Mean). The geometric mean is an average calculated by multiplying a series of numbers and taking the nth root where n is the number of numbers in the series. It is a statistical average of a set of transformed numbers often used to represent a central tendency in a highly variable data set that minimizes the effects of extreme values.
(§2) Table 11A and Table 11B feature a schematic representation of the POC data from FIG. 16B and FIG. 16D, respectively, where the binding results are recorded as (+++) denoting binding POC from 40% to 100%, (++) for POC of 5% to less than 40%, (+) for POC from 1% to less than 5% and (−) as lack of binding with POC less than 1%.
T2 sequence (Q8BWG9 other isoform, or with tags, fused parts or gaps): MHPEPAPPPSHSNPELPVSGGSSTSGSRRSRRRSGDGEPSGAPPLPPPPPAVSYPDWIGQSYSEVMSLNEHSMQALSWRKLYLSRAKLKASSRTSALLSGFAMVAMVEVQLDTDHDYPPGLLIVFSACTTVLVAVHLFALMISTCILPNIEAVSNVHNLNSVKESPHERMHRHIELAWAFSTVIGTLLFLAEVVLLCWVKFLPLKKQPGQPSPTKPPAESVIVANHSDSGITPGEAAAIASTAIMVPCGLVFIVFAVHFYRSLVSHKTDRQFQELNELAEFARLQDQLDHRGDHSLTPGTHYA

[2] = molecular target: T3, mOrai1-hOrai1 ECL2 (SPTKPPAE) protein (human/mouse chimera, UniProt Q8BWG9 1-304 (mouse entry)); experiment: FACS, 293EBNA; set-up: concentration or dose not given beside the values
T3 construct: also called Ch
T3 sequence (Q8BWG9 other isoform, or with tags, fused parts or gaps): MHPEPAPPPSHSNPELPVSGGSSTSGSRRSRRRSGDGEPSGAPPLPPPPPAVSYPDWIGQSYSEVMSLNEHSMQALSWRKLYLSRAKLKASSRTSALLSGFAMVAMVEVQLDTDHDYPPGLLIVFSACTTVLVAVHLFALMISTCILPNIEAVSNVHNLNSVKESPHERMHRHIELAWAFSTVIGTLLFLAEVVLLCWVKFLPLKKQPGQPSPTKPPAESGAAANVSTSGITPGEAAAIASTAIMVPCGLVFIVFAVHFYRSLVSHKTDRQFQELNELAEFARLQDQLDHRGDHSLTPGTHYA
Source text: as §1, §2

[3] = molecular target: T4, mOrai1-hOrai1 ECL2 (…) protein (human/mouse chimera, UniProt Q8BWG9 1-304 (mouse entry)); experiment: FACS, 293EBNA; set-up: concentration or dose not given beside the values; remark: listed apart in the source
T4 construct: also called Ch
Source text: as §1, §2
T4 sequence (Q8BWG9 other isoform, or with tags, fused parts or gaps): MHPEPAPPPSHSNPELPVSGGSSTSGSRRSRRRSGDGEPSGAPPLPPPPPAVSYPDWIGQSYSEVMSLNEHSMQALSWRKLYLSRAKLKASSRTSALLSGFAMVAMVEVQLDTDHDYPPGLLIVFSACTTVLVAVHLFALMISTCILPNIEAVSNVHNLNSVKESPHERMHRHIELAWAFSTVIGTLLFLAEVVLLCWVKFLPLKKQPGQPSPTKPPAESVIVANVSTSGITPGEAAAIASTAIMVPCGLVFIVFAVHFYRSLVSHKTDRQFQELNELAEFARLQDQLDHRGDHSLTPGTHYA

[4] = molecular target: T5, mOrai1-hOrai1 ECL2 (…) protein (human/mouse chimera, UniProt Q8BWG9 1-304 (mouse entry)); experiment: FACS, 293EBNA; set-up: concentration or dose not given beside the values; remark: listed apart in the source
T5 construct: also called Ch
Source text: as §1, §2
T5 sequence (Q8BWG9 other isoform, or with tags, fused parts or gaps): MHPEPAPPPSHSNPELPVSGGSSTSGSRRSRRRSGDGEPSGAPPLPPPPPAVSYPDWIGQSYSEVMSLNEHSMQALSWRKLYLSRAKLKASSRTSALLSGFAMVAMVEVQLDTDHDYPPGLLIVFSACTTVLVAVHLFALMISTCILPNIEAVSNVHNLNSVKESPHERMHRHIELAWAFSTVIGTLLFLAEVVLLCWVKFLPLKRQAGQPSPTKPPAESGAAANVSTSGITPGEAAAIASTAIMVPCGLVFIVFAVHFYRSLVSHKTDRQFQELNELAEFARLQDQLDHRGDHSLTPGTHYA

[5] = molecular target: T6, mOrai1-hOrai1 ECL2 (…) protein (human/mouse chimera, UniProt Q8BWG9 1-304 (mouse entry)); experiment: FACS, 293EBNA; set-up: concentration or dose not given beside the values; remark: listed apart in the source
T6 construct: also called Ch
Source text: as §1, §2
T6 sequence (Q8BWG9 other isoform, or with tags, fused parts or gaps): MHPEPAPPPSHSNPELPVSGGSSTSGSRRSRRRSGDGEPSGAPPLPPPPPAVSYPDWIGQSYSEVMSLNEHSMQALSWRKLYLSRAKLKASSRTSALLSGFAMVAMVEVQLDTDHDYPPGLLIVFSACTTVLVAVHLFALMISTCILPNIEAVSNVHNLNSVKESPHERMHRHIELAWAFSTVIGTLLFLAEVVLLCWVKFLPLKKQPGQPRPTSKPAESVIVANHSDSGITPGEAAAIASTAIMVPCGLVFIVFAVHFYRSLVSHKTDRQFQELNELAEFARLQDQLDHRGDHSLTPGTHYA

[6] = molecular target: T7, hOrai1-mOrai1 ECL2 chimeric protein (human/mouse chimera, UniProt Q96D31 1-301); experiment: FACS, 293EBNA; set-up: concentration or dose not given beside the values
T7 construct: human Orai1 with mouse ECL2; also called Ch
T7 sequence (Q96D31 other isoform, or with tags, fused parts or gaps mutant): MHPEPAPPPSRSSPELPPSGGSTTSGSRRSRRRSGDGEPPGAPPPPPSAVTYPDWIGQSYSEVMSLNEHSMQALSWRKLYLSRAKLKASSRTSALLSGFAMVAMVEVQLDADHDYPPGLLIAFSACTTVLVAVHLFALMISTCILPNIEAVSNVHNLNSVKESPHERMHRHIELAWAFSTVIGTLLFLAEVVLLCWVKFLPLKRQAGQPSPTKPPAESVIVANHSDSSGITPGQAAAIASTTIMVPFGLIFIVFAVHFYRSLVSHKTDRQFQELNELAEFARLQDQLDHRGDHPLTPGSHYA
Source text: as §1, §2

[7] = molecular target: T8, mOrai1-hOrai1 ECL2 (AESVIV) protein (human/mouse chimera, UniProt Q8BWG9 1-304 (mouse entry)); experiment: FACS, 293EBNA; set-up: concentration or dose not given beside the values
T8 construct: also called Ch
T8 sequence (Q8BWG9 other isoform, or with tags, fused parts or gaps): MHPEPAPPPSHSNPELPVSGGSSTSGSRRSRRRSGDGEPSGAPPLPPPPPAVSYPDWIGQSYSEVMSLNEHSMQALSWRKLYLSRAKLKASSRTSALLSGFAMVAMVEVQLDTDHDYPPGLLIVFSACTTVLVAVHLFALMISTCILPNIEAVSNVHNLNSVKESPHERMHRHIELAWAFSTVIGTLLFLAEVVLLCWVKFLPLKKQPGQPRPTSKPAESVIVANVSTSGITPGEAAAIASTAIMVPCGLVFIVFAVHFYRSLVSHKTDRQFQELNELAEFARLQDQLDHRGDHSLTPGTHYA
Source text: as §1, §2

[8] = molecular target: T9, mOrai1-hOrai1 ECL2 (KPPAE) protein (human/mouse chimera, UniProt Q8BWG9 1-304 (mouse entry)); experiment: FACS, 293EBNA; set-up: concentration or dose not given beside the values
T9 construct: also called Ch
T9 sequence (Q8BWG9 other isoform, or with tags, fused parts or gaps): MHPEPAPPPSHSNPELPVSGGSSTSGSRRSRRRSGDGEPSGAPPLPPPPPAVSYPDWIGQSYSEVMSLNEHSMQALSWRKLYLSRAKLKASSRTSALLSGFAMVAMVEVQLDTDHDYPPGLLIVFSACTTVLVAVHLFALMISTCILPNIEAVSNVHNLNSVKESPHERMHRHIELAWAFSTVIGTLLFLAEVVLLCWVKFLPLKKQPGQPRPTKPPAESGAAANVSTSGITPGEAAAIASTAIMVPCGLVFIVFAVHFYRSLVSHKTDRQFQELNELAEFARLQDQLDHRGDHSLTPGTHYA
Source text: as §1, §2

[9] = molecular target: T10, hOrai1-mOrai1 ECL2 (PASGAA) protein (human/mouse chimera, UniProt Q96D31 1-301); experiment: FACS, 293EBNA; set-up: concentration or dose not given beside the values
T10 construct: also called Ch
T10 sequence (Q96D31 other isoform, or with tags, fused parts or gaps): as the sequence (Q96D31 other isoform, or with tags, fused parts or gaps mutant) above, with A216P, E217A, V219G, I220A, V221A counted along it
Source text: (§3) FIG. 17A-D illustrates the results of FACS analysis showing binding to the indicated mOrai1-hOrai1 ECL2 chimeric mutants expressed on the surface of HEK-293-EBNA cells. Transfected cells were stained first with recombinant monoclonal antibodies then counter-stained with a secondary phycoerythrin-labeled goat (“Gt”) anti-human (“Hu”) IgG F(ab′)₂ antibody fragment and visualized using FACS.
(§4) Representative results of FACS analysis of binding to the mutant hOrai1-mOrai1 ECL2 chimera described above by exemplary anti-hOrai1 antibodies of the present invention are shown in FIG. 17A-D, Table 10A and Table 10B below. Table 10A (Campaign 1) and Table 10B (Campaign 2) show the gain in binding ability of exemplary monoclonal antibodies to hOrai 1-mOrai 1 ECL2 chimera mutants as determined by FACS.

[10] = molecular target: T11, hOrai1-mOrai1 ECL2 (GAA) protein (human/mouse chimera, UniProt Q96D31 1-301); experiment: FACS, 293EBNA; set-up: concentration or dose not given beside the values
T11 construct: also called Ch
T11 sequence (Q96D31 other isoform, or with tags, fused parts or gaps): as the sequence (Q96D31 other isoform, or with tags, fused parts or gaps mutant) above, with V219G, I220A, V221A counted along it
Source text: as §3, §4

[11] = molecular target: T7, hOrai1-mOrai1 ECL2 chimeric protein; experiment: FACS, 293EBNA; set-up: concentration or dose not given beside the values; remark: listed apart in the source
Source text: as §3, §4

[12] = molecular target: T12, hOrai1-mOrai1 ECL2 (…) protein (human/mouse chimera, UniProt Q96D31 1-301); experiment: FACS, 293EBNA; set-up: concentration or dose not given beside the values
T12 construct: also called Ch
T12 sequence (Q96D31 other isoform, or with tags, fused parts or gaps): as the sequence (Q96D31 other isoform, or with tags, fused parts or gaps mutant) above, with A216P, E217A, V219G, I220A, V221A, H224V, D226T counted along it
Source text: as §3, §4

[13] = molecular target: T13, hOrai1-mOrai1 ECL2 (AANVST) protein (human/mouse chimera, UniProt Q96D31 1-301); experiment: FACS, 293EBNA; set-up: concentration or dose not given beside the values
T13 construct: also called Ch
T13 sequence (Q96D31 other isoform, or with tags, fused parts or gaps): as the sequence (Q96D31 other isoform, or with tags, fused parts or gaps mutant) above, with V221A, H224V, D226T counted along it
Source text: as §3, §4

[14] = molecular target: T14, hOrai1-mOrai1 ECL2 (VST) protein (human/mouse chimera, UniProt Q96D31 1-301); experiment: FACS, 293EBNA; set-up: concentration or dose not given beside the values
T14 construct: also called Ch
T14 sequence (Q96D31 other isoform, or with tags, fused parts or gaps): as the sequence (Q96D31 other isoform, or with tags, fused parts or gaps mutant) above, with H224V, D226T counted along it
Source text: as §3, §4

T1 sequence (Q96D31 whole entry): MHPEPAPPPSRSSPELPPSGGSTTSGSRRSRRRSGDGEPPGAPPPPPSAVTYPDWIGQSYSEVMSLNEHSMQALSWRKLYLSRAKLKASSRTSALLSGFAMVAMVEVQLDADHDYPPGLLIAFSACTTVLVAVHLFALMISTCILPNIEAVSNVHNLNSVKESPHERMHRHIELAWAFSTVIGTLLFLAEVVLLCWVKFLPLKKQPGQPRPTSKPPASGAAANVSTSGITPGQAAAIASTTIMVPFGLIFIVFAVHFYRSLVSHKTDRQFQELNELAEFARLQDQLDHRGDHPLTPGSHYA

Row | Binder | Kd (human Orai1) | POC (percent of control, FACS Geo Mean relative to Ch. 1) [1] | POC (percent of control, FACS Geo Mean relative to Ch. 1) [2] | POC (percent of control, FACS Geo Mean relative to Ch. 1) [3] | POC (percent of control, FACS Geo Mean relative to Ch. 1) [4] | POC (percent of control, FACS Geo Mean relative to Ch. 1) [6] | POC (percent of control, FACS Geo Mean relative to Ch. 1) [8] | POC (percent of control, FACS Geo Mean relative to binding to Ch. 1) [1] | POC (percent of control, FACS Geo Mean relative to binding to Ch. 1) [2] | POC (percent of control, FACS Geo Mean relative to binding to Ch. 1) [3] | POC (percent of control, FACS Geo Mean relative to binding to Ch. 1) [4] | POC (percent of control, FACS Geo Mean relative to binding to Ch. 1) [6] | POC (percent of control, FACS Geo Mean relative to binding to Ch. 1) [8] | percent of control (POC) of FACS Geo Mean [9] | percent of control (POC) of FACS Geo Mean [10] | percent of control (POC) of FACS Geo Mean [11] | percent of control (POC) of FACS Geo Mean [12] | percent of control (POC) of FACS Geo Mean [13] | percent of control (POC) of FACS Geo Mean [14] | other results
1 | mAb 2D2.1 (antibody, human IgG2, lambda, V domains shown, fully human IgG2 lambda, Campaign 1; also called mAb 2D.1) VH: QVQLQQWGAGLLKPSETLSLTCAVYGGSFSGYYWSWIRQPPGKGLEWIGEIDHSGRINYNPALKSRLTISVDTSKNQFSLKLSSVTAADTAVYYCARAGSGGYEDWFDPWGQGTLVTVSS VL: QSVLTQPPSVSGAPGQRVTISCTGSSSNIGAGYNVHWYQQFPRTDPKLLIYVYNIRPSGVPDRFSGSRSGTSASLAITGLQTEDEADYYCQSYDSSLSGVVFGGGTKLTVLG | 0.0098 nM | < 1% | < 1% | < 1% | < 1% | < 1% | < 1% | < 1% | < 1% | < 1% | < 1% | < 1% | < 1% | < 1% | < 1% | < 1% | < 1% | < 1% | < 1% | –
2 | mAb 2B7.1 (antibody, human IgG2, V domains shown, fully human, Campaign 1) VH: QVQLQQWGAGLLKPSETLSLTCAVYGGSFSGYYWSWIRQPPGKGLEWIGEIDHSGSTNYNPALKSRLTISVDTSKNQFSLKLSSVTAADTAVYYCARAGSGGYEDWFDPWGQGTLVTVSS VL: QSVLTQPPSVSGAPGQRVTISCTGSSSNIGTGYNVHWYQQFPRTDPKLLIYVYNIRPSGVPDRFSGSRSGTSASLAITGLQTEDEADYYCQSYDSSLSGVVFGGGTKLTVLG | 0.133 nM | < 1% | < 1% | < 1% | < 1% | < 1% | < 1% | – | – | – | – | – | – | – | – | – | – | – | – | –
3 | mAb 2C1.1 (antibody, human IgG2, lambda, V domains shown, fully human IgG2 lambda, Campaign 1; tested hybridoma-purified and recombinant; also called anti-hOrai1 mAb 2C1.1) VH: QVQLQQWGAGLLKPSETLSLTCAVYGGSFSGYYWSWIRQPPGKGLEWIGEIDHSGSTNYNPALKSRLTISVDTSKNQFSLKLSSVTAADTAVYYCARAGSGGYEDWFDPWGQGTLVTVSS VL: QSVLTQPPSVSGAPGQRVTISCTGSSSNIGAGYNVHWYQQFPRTDPKLLIYVYNIRPSGVPDRFSGSRSGTSASLAITGLQTEDEADYYCQSYDSSLSGVVFGGGTKLTVLG | 0.52 nM | < 1% | < 1% | < 1% | < 1% | < 1% | < 1% | – | – | – | – | – | – | – | – | – | – | – | – | –

More lines, in order of falling Kd (human Orai1), values ahead:

Row | Kd (human Orai1) | POC (percent of control, FACS Geo Mean relative to Ch. 1) [1] | POC (percent of control, FACS Geo Mean relative to Ch. 1) [2] | POC (percent of control, FACS Geo Mean relative to Ch. 1) [3] | POC (percent of control, FACS Geo Mean relative to Ch. 1) [4] | POC (percent of control, FACS Geo Mean relative to Ch. 1) [6] | POC (percent of control, FACS Geo Mean relative to Ch. 1) [8] | POC (percent of control, FACS Geo Mean relative to binding to Ch. 1) [1] | POC (percent of control, FACS Geo Mean relative to binding to Ch. 1) [2] | POC (percent of control, FACS Geo Mean relative to binding to Ch. 1) [3] | POC (percent of control, FACS Geo Mean relative to binding to Ch. 1) [4] | POC (percent of control, FACS Geo Mean relative to binding to Ch. 1) [6] | POC (percent of control, FACS Geo Mean relative to binding to Ch. 1) [8] | percent of control (POC) of FACS Geo Mean [9] | percent of control (POC) of FACS Geo Mean [10] | percent of control (POC) of FACS Geo Mean [11] | percent of control (POC) of FACS Geo Mean [12] | percent of control (POC) of FACS Geo Mean [13] | percent of control (POC) of FACS Geo Mean [14] | Binder | other results
4 | 1.8 nM | < 1% | < 1% | < 1% | < 1% | < 1% | < 1% | – | – | – | – | – | – | – | – | – | – | – | – | mAb 2B4.1 (antibody, human IgG2, lambda, V domains shown) VH: QVQLVQSGAEVKKPGASVKVSCKASGYTFTDYYMHWVRQAPGQGLEWMGWINPNSGGTNYVQKFQDRVTMTRDTSITTAYMELTRLRSDDTAVYYCAREEGDYGMDVWGQGTTVTVSS VL: QSVLTQPPSVSGAPGQRVTISCTGSNSNIGTGYDVHWYQKLPGTAPRLLIYSHFNRPSGVPDRFSGSTSGTSASLAITGLQAEDEADYYCQSYDSSLSGSVFGGGTKLTVLG | POC (percent of control, FACS Geo Mean relative to Ch. 1) [5]: < 1%; POC (percent of control, FACS Geo Mean relative to Ch. 1) [7]: < 1%
5 | 0.443 nM | – | – | – | – | – | – | < 1% | < 1% | < 1% | < 1% | < 1% | < 1% | < 1% | < 1% | < 1% | < 1% | < 1% | < 1% | mAb 5B1.1 (antibody, human IgG2, lambda, V domains shown, fully human IgG2 lambda, Campaign 2; also called mAb 5Bl1.1) VH: QVQLVQSGAEVKKPGASVKVSCKASGYTFTDYYINWVRQAPGQGLEWMGWINPNSGGSSYAQKFQGRVTMTRDTSISTAHMELIRLRSDDTAVYYCARERGGIEDWFDPWGQGTLVTVSS VL: QSVLTQPPSVSGAPGQRVTISCTGSSSNIGAGYDVHWYQQLPGTAPKLLIYGNSNRPSGVPDRFSGSKSGTSASLAITKFQAEDEAVYYCQSYGSGLSGVVFGGGTKLTVLG | –
